The values below come from US20070003547A1 (published 2007).

One test has as its target scorpion toxin (Centruroides noxius, UniProt P01495 17-82). The experiment in a line: BIAcore SPR, toxin immobilized, antibody in solution, from kinetic rate constants.
The target of the next test is T1, chicken lysozyme (chicken, UniProt P00698 19-147).
T1 construct: The assay paragraph says only 'lysozyme'; also called chicken lysozyme antigen
The experiment in a line: fluorescence quench titration (FIG. 7 legend).

The target in another test is CD28Ig (human, UniProt P10747 19-152). The experiment in a line: ELISA, CD28Ig coated plates, anti-human k conjugate. For orientation: In an ELISA, binding on a coated surface is turned into a signal by an enzyme label.

B1: (Fab)'2 fragment of mouse BCF2 IgG (other)
chain 1: DIVLTQSPVSLAVSVGQRATISCKASQSVDFDGESYMNWYQQKPGQPPKLLIYVVSNLESGIPARFSGSGSGTDFTLNIHPVEEEDAATYYCQQSNEDPLTFGAGTNLELKR
chain 2: EVQLQQSGPELVKPGASMKISCKVSGYSFTDHTMNWVKQSHGKNLELIGLINPFNGDATYKQKFTGKATLTVDRSSSTAFMELLSLTSEDSAVYYCARYGNYAMDYWGQGTSVTVSS
The Kd is the free concentration of one partner at which half of the binding sites on the other are occupied at equilibrium, for simple one-to-one binding. Low readings indicate higher affinity, high ones lower affinity. B1 had an equilibrium dissociation constant (Kd) with scorpion toxin of 10 nM.

B2: humanized D1.3 Fab (Fab, V domains shown)
VH: QVQLQESGPGLVKPSETLSLTCTVSGGSVSGYGVNWIRQPPGKGLEWIGMIWGDGNTDYNSSLKSRVTISVDTSKNQFSLKLSSVTAADTAVYYCARERDYRLDYWGQGTLVTVSS
VL: AIRMTQSPFSLSASVGDRVTITCRASGNIHNYLAWYQQKPAKAPKLFIYYTTTLADGVPSRFSGSGSGTDYTLTISSLQPEDFATYYCQHFWSTPRTFGGGTKVEIKR
The molecule B2 showed a Ka in the test with chicken lysozyme above 1e+08 M⁻¹.

B3: Fab fragment comprised of mouse 9.3 variable domains and human constant domains (Fab, V domains shown)
VH: EVKLQQSGPGLVTPSQSLSITCTVSGFSLSDYGVHWVRQSPGQGLEWLGVIWAGGGTNYNSALMSRKSISKDNSKSQVFLKMNSLQADDTAVYYCARDKGYSYYYSMDYWGQGTSVTVSS
VL: DIELTQSPASLAVSLGQRATISCRASESVEYYVTSLMQWYQQKPGQPPKLLIFAASNVESGVPARFSGSGSGTNFSLNIHPVDEDDVAMYFCQQSRKVPYTFGGGTKLEIKR
A word on the EC50: it is the midpoint of the concentration-response curve. The low end stands for a more potent agent, the high end for a less potent agent. Turning to B3, the EC50 with CD28Ig worked out at 20 nM.

B4: humanized BCF2 Fab fragment (Fab, V domains shown)
VH: EVQLVQSGAEVKKPGATVKISCKVSGYTFTDHTMNWVQQAPGKGLEWMGLINPFNGDATYKQKFQGRVTITADTSTDTAYMELSSLRSEDTAVYYCARYGNYAMDYWGQGTTVTVSS
VL: DIVMTQTPLSLSVTPGQPASISCKASQSVDFDGESYMNWYLQKPGQPPQLLIYVVSNLESGVPDRFSGSGSGTDFTLKISRVEAEDVGVYYCQQSNEDPLTFGGGYKVEIKR
In the case of B4, binding with scorpion toxin was put at a Kd of 140 nM.
